The target of the data set is 3Flag-Lef1 (zebrafish) (UniProt Q9W7C0). Kind of data set: EMSA. The note with it: 100 mM Hepes pH 7.5, 100 mM NaCl, 50 mM KCl, 1 mM DTT, 1 mM EDTA, 5% glycerol, 30 min at 25 °C. (A gel shift assay detects complexes by their altered migration in electrophoresis.)
Sequence of UniProt Q9W7C0 (Q9W7C0 entry or part of it): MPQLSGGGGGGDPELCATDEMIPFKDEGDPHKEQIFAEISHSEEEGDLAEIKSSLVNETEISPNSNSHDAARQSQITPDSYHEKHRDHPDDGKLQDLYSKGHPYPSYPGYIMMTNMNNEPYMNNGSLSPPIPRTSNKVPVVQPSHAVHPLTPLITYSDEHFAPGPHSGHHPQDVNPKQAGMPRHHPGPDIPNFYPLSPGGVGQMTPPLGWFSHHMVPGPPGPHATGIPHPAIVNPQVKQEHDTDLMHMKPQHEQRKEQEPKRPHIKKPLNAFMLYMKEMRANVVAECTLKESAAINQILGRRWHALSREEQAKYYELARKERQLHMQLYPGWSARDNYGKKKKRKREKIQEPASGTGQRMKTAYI

On to “CACCACTGATAAAAACTATTAAAGATCAGTCTGGGAGTCACTACTTTACTACTTGGTTTCATCAAAGTATTAAAAAAAGTGATGCGCTGCCTTCTTTAAATGCGTTCAC (double strand) [eya2 promoter WT EMSA probe]”, for which the binding entry is “binds”.

These data come from publication PMC12372851.
